# Paper PMC7395460, “Structural mechanism of helicase loading onto replication origin DNA by ORC-Cdc6” (Proceedings of the National Academy of Sciences of the …, 2020)
# T1: Mcm4 (S. cerevisiae, UniProt P30665 1-933)
# T1 construct: Mcm4 of S. cerevisiae; Stood in the assay as a subunit of the mutant Mcm2-7
# T1 sequence: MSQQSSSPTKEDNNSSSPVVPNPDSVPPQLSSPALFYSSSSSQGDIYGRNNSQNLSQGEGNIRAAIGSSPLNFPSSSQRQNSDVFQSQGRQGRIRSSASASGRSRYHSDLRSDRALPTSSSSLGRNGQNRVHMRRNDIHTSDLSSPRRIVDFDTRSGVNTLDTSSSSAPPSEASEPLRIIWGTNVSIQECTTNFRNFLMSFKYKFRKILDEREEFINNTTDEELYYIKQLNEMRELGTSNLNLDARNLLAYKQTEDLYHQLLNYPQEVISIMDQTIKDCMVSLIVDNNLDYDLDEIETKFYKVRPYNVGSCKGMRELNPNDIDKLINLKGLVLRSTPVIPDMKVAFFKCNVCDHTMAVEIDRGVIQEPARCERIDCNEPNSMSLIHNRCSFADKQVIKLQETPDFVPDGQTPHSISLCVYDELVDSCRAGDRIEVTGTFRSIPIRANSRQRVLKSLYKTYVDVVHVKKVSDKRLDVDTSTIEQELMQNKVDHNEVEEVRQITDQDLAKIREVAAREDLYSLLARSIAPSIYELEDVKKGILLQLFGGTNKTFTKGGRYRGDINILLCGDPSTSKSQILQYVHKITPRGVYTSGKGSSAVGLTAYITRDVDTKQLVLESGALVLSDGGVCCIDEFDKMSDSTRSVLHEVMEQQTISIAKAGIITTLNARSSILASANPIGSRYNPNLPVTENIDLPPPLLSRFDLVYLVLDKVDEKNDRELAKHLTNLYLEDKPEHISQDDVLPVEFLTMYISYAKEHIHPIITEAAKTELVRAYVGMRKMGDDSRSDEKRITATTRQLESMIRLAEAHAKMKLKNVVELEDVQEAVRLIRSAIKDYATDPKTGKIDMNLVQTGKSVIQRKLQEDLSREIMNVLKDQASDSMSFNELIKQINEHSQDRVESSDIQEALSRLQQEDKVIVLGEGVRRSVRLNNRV
# B1: Orc1 (natural protein, S. cerevisiae)
# chain: MAKTLKDLQGWEIITTDEQGNIIDGGQKRLRRRGAKTEHYLKRSSDGIKLGRGDSVVMHNEAAGTYSVYMIQELRLNTLNNVVELWALTYLRWFEVNPLAHYRQFNPDANILNRPLNYYNKLFSETANKNELYLTAELAELQLFNFIRVANVMDGSKWEVLKGNVDPERDFTVRYICEPTGEKFVDINIEDVKAYIKKVEPREAQEYLKDLTLPSKKKEIKRGPQKKDKATQTAQISDAETRATDITDNEDGNEDESSDYESPSDIDVSEDMDSGEISADELEEEEDEEEDEDEEEKEARHTNSPRKRGRKIKLGKDDIDASVQPPPKKRGRKPKDPSKPRQMLLISSCRANNTPVIRKFTKKNVARAKKKYTPFSKRFKSIAAIPDLTSLPEFYGNSSELMASRFENKLKTTQKHQIVETIFSKVKKQLNSSYVKEEILKSANFQDYLPARENEFASIYLSAYSAIESDSATTIYVAGTPGVGKTLTVREVVKELLSSSAQREIPDFLYVEINGLKMVKPTDCYETLWNKVSGERLTWAASMESLEFYFKRVPKNKKKTIVVLLDELDAMVTKSQDIMYNFFNWTTYENAKLIVIAVANTMDLPERQLGNKITSRIGFTRIMFTGYTHEELKNIIDLRLKGLNDSFFYVDTKTGNAILIDAAGNDTTVKQTLPEDVRKVRLRMSADAIEIASRKVASVSGDARRALKVCKRAAEIAEKHYMAKHGYGYDGKTVIEDENEEQIYDDEDKDLIESNKAKDDNDDDDDNDGVQTVHITHVMKALNETLNSHVITFMTRLSFTAKLFIYALLNLMKKNGSQEQELGDIVDEIKLLIEVNGSNKFVMEIAKTLFQQGSDNISEQLRIISWDFVLNQLLDAGILFKQTMKNDRICCVKLNISVEEAKRAMNEDETLRNL
# notes: Orc1, subunit of the S. cerevisiae origin recognition complex; Stood in the assay as a subunit of ORC
# Experiments:
# Experiment in all cases: cryo-EM structure; pre-insertion OCCM, 8.1 Å; same loading reaction (purified ORC, Cdc6, Cdt1, mutant Mcm2-7, ARS1 DNA, ATPγS); models docked as rigid bodies
# Settings in all cases: both partners purified
# Mcm3 = biological target: T2, Mcm3 (S. cerevisiae, UniProt P24279 1-971)
# T2 construct: Mcm3 of S. cerevisiae; Stood in the assay as a subunit of the mutant Mcm2-7; in the semi-attached OCCM only its WHD is resolved
# T2 sequence (P24279 whole entry): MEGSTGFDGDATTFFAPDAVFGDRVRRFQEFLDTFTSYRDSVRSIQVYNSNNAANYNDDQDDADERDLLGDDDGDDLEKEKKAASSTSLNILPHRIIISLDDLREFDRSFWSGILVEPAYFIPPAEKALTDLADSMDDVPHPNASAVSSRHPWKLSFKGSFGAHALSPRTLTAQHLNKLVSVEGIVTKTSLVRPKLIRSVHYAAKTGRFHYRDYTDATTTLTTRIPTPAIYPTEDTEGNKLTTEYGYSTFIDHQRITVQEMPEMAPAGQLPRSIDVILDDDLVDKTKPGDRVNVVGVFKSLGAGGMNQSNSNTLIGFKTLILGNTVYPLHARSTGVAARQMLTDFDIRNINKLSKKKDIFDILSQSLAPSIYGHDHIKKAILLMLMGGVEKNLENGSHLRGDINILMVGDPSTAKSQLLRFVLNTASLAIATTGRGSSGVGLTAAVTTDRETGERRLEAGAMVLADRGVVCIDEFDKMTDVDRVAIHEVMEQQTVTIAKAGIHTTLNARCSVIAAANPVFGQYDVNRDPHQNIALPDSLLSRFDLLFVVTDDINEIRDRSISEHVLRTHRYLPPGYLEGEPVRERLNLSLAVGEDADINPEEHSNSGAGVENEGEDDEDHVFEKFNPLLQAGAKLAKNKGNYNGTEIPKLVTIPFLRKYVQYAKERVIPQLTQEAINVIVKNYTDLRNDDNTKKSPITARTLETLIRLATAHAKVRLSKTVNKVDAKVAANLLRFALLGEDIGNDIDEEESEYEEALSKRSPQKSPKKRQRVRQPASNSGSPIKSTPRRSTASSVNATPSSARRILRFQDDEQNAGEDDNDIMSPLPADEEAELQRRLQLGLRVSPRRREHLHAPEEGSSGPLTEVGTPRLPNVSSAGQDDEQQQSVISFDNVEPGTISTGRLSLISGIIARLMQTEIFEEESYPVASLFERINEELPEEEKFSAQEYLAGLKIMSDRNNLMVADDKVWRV
# Mcm4 = biological target: T1, Mcm4
# Orc1 = biological target: B1
binder,measurement,setting,value
"Orc2 (natural protein, S. cerevisiae, Orc2, subunit of the S. cerevisiae origin recognition complex; Stood in the assay as a subunit of ORC) MLNGEDFVEHNDILSSPAKSRNVTPKRVDPHGERQLRRIHSSKKNLLERISLVGNERKNTSPDPALKPKTPSKAPRKRGRPRKIQEELTDRIKKDEKDTISSKKKRKLDKDTSGNVNEESKTSNNKQVMEKTGIKEKREREKIQVATTTYEDNVTPQTDDNFVSNSPEPPEPATPSKKSLTTNHDFTSPLKQIIMNNLKEYKDSTSPGKLTLSRNFTPTPVPKNKKLYQTSETKSASSFLDTFEGYFDQRKIVRTNAKSRHTMSMAPDVTREEFSLVSNFFNENFQKRPRQKLFEIQKKMFPQYWFELTQGFSLLFYGVGSKRNFLEEFAIDYLSPKIAYSQLAYENELQQNKPVNSIPCLILNGYNPSCNYRDVFKEITDLLVPAELTRSETKYWGNHVILQIQKMIDFYKNQPLDIKLILVVHNLDGPSIRKNTFQTMLSFLSVIRQIAIVASTDHIYAPLLWDNMKAQNYNFVFHDISNFEPSTVESTFQDVMKMGKSDTSSGAEGAKYVLQSLTVNSKKMYKLLIETQMQNMGNLSANTGPKRGTQRTGVELKLFNHLCAADFIASNEIALRSMLREFIEHKMANITKNNSGMEIIWVPYTYAELEKLLKTVLNTL",binding result,Mcm3,binds
B1,binding result,Mcm4,binds
"Mcm7 (natural protein, S. cerevisiae, UniProt P38132 1-845, looked up, Mcm7 of S. cerevisiae; Stood in the assay as a subunit of the mutant Mcm2-7; in the semi-attached OCCM only its WHD is resolved) MSAALPSIQLPVDYNNLFNEITDFLVTFKQDTLSSDATRNENEDENLDAENIEQHLLEKGPKYMAMLQKVANRELNSVIIDLDDILQYQNEKFLQGTQADDLVSAIQQNANHFTELFCRAIDNNMPLPTKEIDYKDDVLDVILNQRRLRNERMLSDRTNEIRSENLMDTTMDPPSSMNDALREVVEDETELFPPNLTRRYFLYFKPLSQNCARRYRKKAISSKPLSVRQIKGDFLGQLITVRGIITRVSDVKPAVEVIAYTCDQCGYEVFQEVNSRTFTPLSECTSEECSQNQTKGQLFMSTRASKFSAFQECKIQELSQQVPVGHIPRSLNIHVNGTLVRSLSPGDIVDVTGIFLPAPYTGFKALKAGLLTETYLEAQFVRQHKKKFASFSLTSDVEERVMELITSGDVYNRLAKSIAPEIYGNLDVKKALLLLLVGGVDKRVGDGMKIRGDINVCLMGDPGVAKSQLLKAICKISPRGVYTTGKGSSGVGLTAAVMKDPVTDEMILEGGALVLADNGICCIDEFDKMDESDRTAIHEVMEQQTISISKAGINTTLNARTSILAAANPLYGRYNPRLSPLDNINLPAALLSRFDILFLMLDIPSRDDDEKLAEHVTYVHMHNKQPDLDFTPVEPSKMREYIAYAKTKRPVMSEAVNDYVVQAYIRLRQDSKREMDSKFSFGQATPRTLLGIIRLSQALAKLRLADMVDIDDVEEALRLVRVSKESLYQETNKSKEDESPTTKIFTIIKKMLQETGKNTLSYENIVKTVRLRGFTMLQLSNCIQEYSYLNVWHLINEGNTLKFVDDGTMDTDQEDSLVSTPKLAPQTTASANVSAQDSDIDLQDA",binding result,Orc1,binds
